The values below come from publication PMC5986150.

Experiment [1] deals with Calmodulin of Calmodulin Sepharose 4B (GE Healthcare Life Sciences) (UniProt P62157). The experiment can be described thus: pull-down; commercial Calmodulin Sepharose 4B (GE); clarified E. coli lysate with CaN (2 mM CaCl2) incubated with the resin at 4°C, in parallel with the 12-ADA CaM resins; eluted with 1 mM EGTA; semi-quantitative SDS-PAGE with Coomassie.
Experiment [2] deals with 12-ADA CaM (Drosophila melanogaster calmodulin engineered with an N-terminal N-myristoyl transferase recognition peptide and labelled with 12-azidododecanoic acid) (Drosophila melanogaster) (UniProt P62152). The experiment can be described thus: pull-down; purified 12-ADA CaM (1, 2 or 5 mg mL^-1) conjugated to DBCO-Sepharose; clarified E. coli lysate with CaN (25 mM Tris pH 7.5, 3 mM MgCl2, 100 mM NaCl, 2 mM CaCl2) incubated with the resin at 4°C for 45 minutes - 1 hr; washes with 2 mM CaCl2, one with 1 M NaCl; eluted with 1 mM EGTA; semi-quantitative SDS-PAGE with Coomassie.

For experiment [3] the target is unchanged. Put plainly: pull-down; 12-ADA CaM conjugated to DBCO-Sepharose directly from clarified lysate, resin washed; clarified E. coli lysate with CaN (25 mM Tris pH 7.5, 3 mM MgCl2, 100 mM NaCl, 2 mM CaCl2) incubated with the resin at 4°C for 45 minutes - 1 hr; washes with 2 mM CaCl2, one with 1 M NaCl; eluted with 1 mM EGTA; semi-quantitative SDS-PAGE with Coomassie.

As to “Human calcineurin (CaN), α and β subunits (from UniProt Q08209 1-521; P63098 1-170) (complex)”, the avg. amount of CaN purified from the resin stood at 0.2 mg in experiment [1], 0.1 mg in experiment [2] and 0.6 mg in experiment [3].
